Assay results: publication PMC6045628 (Scientific Reports, 2018)

Assays:
[1] = molecular target: Influenza A virus hemagglutinin fused to mEGFP (HA-wt-mEGFP) (Influenza A virus)
[2] = molecular target: the molecule itself; experiment: Number&Brightness analysis (fluorescence fluctuation spectroscopy, molecular brightness); living U2OS cells expressing the mEGFP fusion; brightness normalised to 1xmEGFP and corrected for non-fluorescent mEGFP with pf = 0.72 from 2xmEGFP

| Molecule | stoichiometry N [1] | stoichiometry N [2] |
| --- | --- | --- |
| Influenza A virus hemagglutinin fused to mEGFP (HA-wt-mEGFP) (natural protein) | 3.17 | – |
| E. coli glutamine synthetase fused to mEGFP (GlnA-mEGFP) (enzyme, UniProt P0A9C5 1-469, looked up, also called GlnA complex; copies: 12) MSAEHVLTMLNEHEVKFVDLRFTDTKGKEQHVTIPAHQVNAEFFEEGKMFDGSSIGGWKGINESDMVLMPDASTAVIDPFFADSTLIIRCDILEPGTLQGYDRDPRSIAKRAEDYLRSTGIADTVLFGPEPEFFLFDDIRFGSSISGSHVAIDDIEGAWNSSTQYEGGNKGHRPAVKGGYFPVPPVDSAQDIRSEMCLVMEQMGLVVEAHHHEVATAGQNEVATRFNTMTKKADEIQIYKYVVHNVAHRFGKTATFMPKPMFGDNGSGMHCHMSLSKNGVNLFAGDKYAGLSEQALYYIGGVIKHAKAINALANPTTNSYKRLVPGYEAPVMLAYSARNRSASIRIPVVSSPKARRIEVRFPDPAANPYLCFAALLMAGLDGIKNKIHPGEAMDKNLYDLPPEEAKEIPQVAGSLEEALNELDLDREFLKAGGVFTDEAIDAYIALRREEDDRVRMTPHPVEFELYYSV | – | 11.9 |
